{
  "source": "patent US20240425589A1",
  "about": "“CYTOTOXICITY-INDUCING THERAPEUTIC AGENT FOR USE IN TREATMENT OF CANCER” (CHUGAI SEIYAKU KABUSHIKI KAISHA, priority 2021, published 2024)",
  "key": {"OV-90": {"system": "OV-90", "assay": "Mouse peritoneal dissemination model", "format": "in vivo, NOD/ShiJic-scid Jcl mice", "conditions": "5 mg/kg iv", "method": "To evaluate the effect of anti-CLDN6/Dual-Fab tri-specific antibody CS4135 (the same antibody as PPU4135 described in Table 9 of Example 6 described above) against peritoneal metastasis of ovary cancer, the drug efficacy was evaluated using a mouse peritoneal dissemination model. Human ovarian cancer cell line OV-90 (ATCC) was used as target cells. OV-90 cells were transplanted intraperitoneally to NOD/ShiJic-scid Jcl mice at 5×10^6 cells/500 μL/animal. Three days after transplantation, human T cells separated from human PBMC and expansively cultured using Dynabeads Human T-Activator CD3/CD28 (Gibco) were administered intravenously at 3×10^7 cells/400 μL. Furthermore, the vehicle (PBS containing 0.05% Tween-20) or a CS4135 antibody solution at 5 mg/kg was administered intravenously.\nAfter tumor transplantation, the mice were observed every 2 to 7 days, and the conditions of the mice were assessed according to the humane endpoint guideline."}, "recombinant cyno CD137": {"molecular_target": "recombinant cyno CD137 (Macaca fascicularis, UniProt A9YYE7)", "sequence (A9YYE7 1-254)": "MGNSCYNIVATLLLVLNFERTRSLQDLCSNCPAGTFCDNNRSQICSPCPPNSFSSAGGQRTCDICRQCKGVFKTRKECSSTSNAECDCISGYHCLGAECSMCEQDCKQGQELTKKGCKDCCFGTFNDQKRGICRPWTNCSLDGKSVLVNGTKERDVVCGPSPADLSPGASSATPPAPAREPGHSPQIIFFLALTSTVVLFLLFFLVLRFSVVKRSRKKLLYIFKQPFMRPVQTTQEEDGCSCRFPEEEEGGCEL", "assay": "Biacore 8K SPR affinity to cyno CD137", "format": "binding, cynomolgus", "conditions": "cyno CD137, 37 degree C, pH 7.4", "method": "The binding affinity of the anti-CLDN6/Dual-Fab tri-specific antibody against recombinant human and cyno CD3eg (gamma and epsilon subunits of CD3) at pH 7.4 was determined at 25 degree C. using Biacore 8K instrument (GE Healthcare). The binding affinity of the anti-CLDN6/Dual-Fab tri-specific antibody against recombinant human and cyno CD137 at pH 7.4 was determined at 37 degree C. using Biacore 8K instrument (GE Healthcare). Anti-human Fc (GE Healthcare) antibody was immobilized onto all flow cells of a CM4 sensor chip using amine coupling kit (GE Healthcare). Tested antibody and analytes were prepared in ACES pH 7.4 containing 20 mM ACES, 150 mM NaCl, 0.05% Tween 20, 0.005% NaN3. Anti-CLDN6/Dual-Fab tri-specific antibody was captured onto the sensor surface by anti-human Fc. Antibody capture levels were aimed at 300 resonance unit (RU). Recombinant CD3eg and CD137 were injected at both 500 and 2000 nM, followed by dissociation. Sensor surface was regenerated each cycle with 3M MgCl2. […] Binding affinities were determined by processing and fitting the data to 1:1 binding model using Biacore Insight Evaluation software (GE Healthcare)."}, "MC38/CLDN6": {"system": "MC38/CLDN6", "assay": "xCELLigence mechanism assay with KLH/CD137 bispecific antibody", "format": "cell-based, mouse", "conditions": "1 nM", "method": "The mechanism of T-cell dependent growth inhibition mediated by the anti-CLDN6/Dual-Fab tri-specific antibodies was assessed by cell proliferation assay using an xCELLigence RTCA MP instrument (ACEA Biosciences).\nMouse colon cancer cell line MC38/CLDN6 expressing human CLDN6 was used as target cells. Spleens were collected aseptically from hCD3 transgenic mice and hCD3/hCD137 knock-in mice. The spleen was ground in RPMI-1640 medium containing 10% FBS, passed through a 70-μm cell strainer, and then centrifuged (at 1200 rpm for 10 minutes at room temperature) to isolate spleen cells. The isolated spleen cells were hemolyzed, then T cells alone were isolated using CD3 MicroBeads (Miltenyi Biotec), and used as effector cells.\nThe background was measured by adding the culture medium to an E-Plate 96 plate (Roche Diagnostics) at 50 μL/well, and then 5×10^3 target cells were plated at 50 μL/well. After culturing overnight, 1 nM (final concentration) of CS4135 together with the KLH/CD137 bispecific antibody at a concentration selected from 100 nM or 500 nM (final concentration) were added at 25 μL/well, respectively. […] Cell growth was monitored every 10 min using xCELLigence over 48 hours during the incubation of the plates. The rate of cell growth inhibition (CGI: %) was determined from the cell index value according to the following formula: […]"}, "NIH:OVCAR-3": {"system": "NIH:OVCAR-3", "assay": "OVCAR3 xenograft in huNOG mice, combination with irinotecan hydrochloride", "format": "in vivo", "conditions": "60 days after transplantation; CS4135 0.1 mg/kg, irinotecan hydrochloride 25 mg/kg, iv days 39, 46", "method": "In this test, NOG(huNOG) mice (described in the aforementioned Example 13) transplanted with ovarian cancer cell line NIH:OVCAR-3 (OVCAR3, ATCC) and human CD34-positive cells were used. The OVCAR3 cell line was transplanted subcutaneously to the right flank of the mice, and the mice were divided into groups 39 days after transplantation. Individuals whose tumor volume reached 160 to 263 mm^3 were divided into groups. Vehicle 1 and CS4135 were administered into the mouse tail vein 39 and 46 days after transplantation. PBS containing 0.05% Tween-20 was used as Vehicle 1. Vehicle 2 and irinotecan hydrochloride (Sawai Pharmaceutical Co., Ltd.) were administered into the mouse tail vein 39 and 46 days after transplantation. Physiological saline was used as Vehicle 2.\nTumor volume was measured 39, 42, 46, 49, 53, 57, and 60 days after transplantation, and the average tumor volume is indicated for each group. The tumor volume was calculated by the following equation: […]\n(§1) Tumor Growth Inhibition (TGI) was calculated by the following equation: […]"}, "OVCAR3": {"system": "OVCAR3", "assay": "OVCAR3 xenograft in huNOG mice, combination with carboplatin", "format": "in vivo", "conditions": "56 days after transplantation; CS4135 0.1 mg/kg iv days 38, 45 (sequential: 48, 55), carboplatin 60 mg/kg ip days 38, 45", "method": "In this test, NOG (huNOG) mice (described in the aforementioned Example 13) transplanted with ovarian cancer cell line OVCAR3 and human CD34-positive cells were used. The OVCAR3 cell line was transplanted subcutaneously to the right flank of the mice, and the mice were divided into groups 38 days after transplantation. Individuals whose tumor volume reached 119 to 210 mm^3 were divided into groups. Vehicle 1 and CS4135 were administered into the mouse tail vein 38 and 45 days after transplantation. PBS containing 0.05% Tween-20 was used as Vehicle 1. Vehicle 2 and carboplatin (Bristol Myers Squibb Company) were administered intraperitoneally to the mice 38 and 45 days after transplantation. Physiological saline was used as Vehicle 2.\nTumor volume was measured 38, 42, 45, 48, 52, and 56 days after transplantation, and the average tumor volume was indicated for each group. The tumor volume was calculated by the following equation: […]\nas §1"}},
  "data": [
    {"molecule": "PPU4135: anti-CLDN6/Dual-Fab tri-specific antibody, chains SEQ ID NOs 42, 51, 56, 69; CS4135 same antibody (protein) chain 1: QVQLVESGGGVVQPGGSLRLSCAASGFTFSSYTMSWVRQAPGQGLEWMGTISSGGGRTYYPDSVKGRFTISRDNSKNTLYLQMNSLRDEDTAVYYCARGDYRYDGFAYWGEGTLVTVSSASTKGPSVFPLAPSSKSTSGGTAALGCLVEDYFPEPVTVSWNSGALTSGVHTFPAVLESSGLYSLSSVVTVPSSSLGTQTYICNVNHKPSNTKVDKRVEPKSCDKTHTCPPCPAPEAAGGPSVFLFPPKPKDTLMISRTPEVTCVVVDVSHEDPEVKFNWYVDGVEVHNAKTKPREEQYASTYRVVSVLTVLHQDWLNGKEYKCKVSNKALPAPIEKTISKAKGQPREPQVYTLPPSREEMTKNQVSLTCLVKGFYPSDIAVEWESNGQPENNYKTTPPVLDSDGSFFLYSKLTVDKSRWQQGNVFSCSVMHEALHNHYTQESLSLSP chain 2: DIQMTQSPSSLSASVGDRVTITCRASYNIDSYLAWYQQKPGKAPELLIYYSTLLVDGVPDRFSGSRSGTDFTLTISSLQPEDFATYYCQHYYSIPYTFGQGTKVEIERTVAAPSVFIFPPSDEQLKSGTAKVVCLLNNFYPREAKVQWKVDNALQSGNSKESVTEQDSKDSTYSLSSTLTLSKADYEKHKVYACEVTHQGLSSPVTKSFNRGEC chain 3: QVQLVESGGGLVQPGRSLRLSCAASGFKFSNVWFHWVRQAPGKGLEWVAQIKDYYNAYAAYYAPSVKGRFTISRDDSKNSIYLQMNSLKTEDTAVYYCHYVHYASASTLLPAEGVDAWGQGTTVTVSSASTKGPSVFPLAPSSKSTSGGTAALGCLVKDYFPEPVTVSWNSGALTSGVHTFPAVLKSSGLYSLSSVVTVPSSSLGTQTYICNVNHKPSNTKVDKRVEPKSCDKTHTCPPCPAPEAAGGPSVFLFPPKPKDTLMISRTPEVTCVVVDVSHEDPEVKFNWYVDGVEVHNAKTKPREEQYASTYRVVSVLTVLHQDWLNGKEYKCKVSNKALPAPIEKTISKAKGQPREPQVYTLPPSRKEMTKNQVSLTCLVKGFYPSDIAVEWESNGQPENNYKTTPPVLDSDGSFFLYSKLTVDKSRWQQGNVFSCSVMHEALHNHYTQKSLSLSP chain 4: DIVMTQSPLSLPVTPGEPASISCQPSQEVVHMNRNTYLHWYQQKPGQAPRLLIYKVSNRFPGVPDRFSGSGSGTDFTLKISRVEAEDVGVYYCAQGTSHPFTFGQGTKLEIKRTVAAPSVFIFPPSDEQLKSGTAEVVCLLNNFYPREAKVQWKVDNALQSGNSEESVTEQDSKDSTYSLSSTLTLSKADYEKHKVYACEVTHQGLSSPVTKSFNRGEC", "values": [
      {"measurement": "50% survival rate found", "setting": "OV-90", "result": "71 days after transplantation"},
      {"measurement": "mice showing aggravated conditions observed from", "setting": "OV-90; vehicle from 48 days", "result": "57 days after transplantation"},
      {"measurement": "survival rate", "setting": "OV-90; 66 days after transplantation", "result": 78, "unit": "%"},
      {"measurement": "survival rate", "setting": "OV-90; 80 days after transplantation", "result": 22, "unit": "%"},
      {"measurement": "ka", "setting": "recombinant cyno CD137", "result": 8350, "unit": "M⁻¹ s⁻¹"},
      {"measurement": "kd", "setting": "recombinant cyno CD137", "result": 0.00146, "unit": "s⁻¹"},
      {"measurement": "cell growth inhibition rate", "setting": "MC38/CLDN6; T cells from hCD3/hCD137 knock-in mice vs hCD3 transgenic mice, no KLH/CD137 bispecific antibody", "result": "significantly higher"},
      {"measurement": "cell growth inhibition rate", "setting": "MC38/CLDN6; hCD3/hCD137 knock-in T cells, 500 nM KLH/CD137 bispecific antibody added", "result": "decreased to the same level as when using hCD3 transgenic mice-derived T cells"},
      {"measurement": "Tumor growth inhibition: TGI", "setting": "NIH:OVCAR-3", "result": "−2", "unit": "%"},
      {"measurement": "Tumor growth inhibition: TGI", "setting": "OVCAR3", "result": 18, "unit": "%"}
    ]}
  ]
}
